The values that follow come from PMC8133803.

This data set deals with SARS-CoV-2 spike S1+S2 ECD-His (SARS-CoV-2 (2019-nCoV), UniProt P0DTC2 16-1213). The experiment in a line: SPR. Background: In SPR one partner is held on a chip, and binding of the other changes the refractive index at the surface.

Take CACCAATATTTACGTTCTACTCTCCAATA (ssDNA, 5' BiotinTEG) [apt-NS]: the binding result is given as “no binding”.
